Residue numbers refer to the chain shown, from its start. Numbers in names are those of the source.
T1: human EphB1 extracellular region-SEAP-His protein (human, UniProt P54762 18-540)
T1 construct: extracellular domain; also called hEphB1-SEAP-His
T1 sequence (looked up): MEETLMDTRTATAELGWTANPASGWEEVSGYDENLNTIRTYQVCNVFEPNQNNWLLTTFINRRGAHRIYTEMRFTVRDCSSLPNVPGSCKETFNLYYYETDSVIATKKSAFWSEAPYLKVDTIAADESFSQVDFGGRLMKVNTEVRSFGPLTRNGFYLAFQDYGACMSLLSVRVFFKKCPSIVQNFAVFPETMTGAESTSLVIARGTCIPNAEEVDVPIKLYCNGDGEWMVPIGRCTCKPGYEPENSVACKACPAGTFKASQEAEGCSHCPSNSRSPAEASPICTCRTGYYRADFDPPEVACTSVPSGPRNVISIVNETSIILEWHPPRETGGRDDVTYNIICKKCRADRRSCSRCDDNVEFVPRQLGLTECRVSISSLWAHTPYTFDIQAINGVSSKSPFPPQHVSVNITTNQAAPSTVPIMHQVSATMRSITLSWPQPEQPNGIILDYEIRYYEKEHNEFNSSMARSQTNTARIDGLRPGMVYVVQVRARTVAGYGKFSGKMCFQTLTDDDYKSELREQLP

T2: human EphA3 extracellular region-SEAP-His protein (human, UniProt P29320 21-541)
T2 construct: extracellular domain; also called hEphA3-SEAP-His
T2 sequence (looked up): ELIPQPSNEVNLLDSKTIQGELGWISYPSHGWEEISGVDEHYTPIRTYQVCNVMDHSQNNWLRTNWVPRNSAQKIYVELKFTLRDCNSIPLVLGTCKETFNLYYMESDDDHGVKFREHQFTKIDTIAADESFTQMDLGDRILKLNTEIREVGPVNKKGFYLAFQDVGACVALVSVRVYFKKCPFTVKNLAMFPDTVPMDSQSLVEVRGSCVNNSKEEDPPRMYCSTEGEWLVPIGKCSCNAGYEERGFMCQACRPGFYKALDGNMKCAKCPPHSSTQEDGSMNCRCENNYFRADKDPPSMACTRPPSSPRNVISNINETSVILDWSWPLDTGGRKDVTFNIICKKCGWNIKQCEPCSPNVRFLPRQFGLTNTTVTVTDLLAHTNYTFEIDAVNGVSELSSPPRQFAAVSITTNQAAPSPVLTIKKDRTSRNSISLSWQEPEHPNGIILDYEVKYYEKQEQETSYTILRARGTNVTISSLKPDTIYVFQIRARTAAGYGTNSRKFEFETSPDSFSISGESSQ

T3: human EphA1 extracellular region-SEAP-His protein (human, UniProt P21709 26-547)
T3 construct: extracellular domain; also called hEphA1-SEAP-His
T3 sequence (looked up): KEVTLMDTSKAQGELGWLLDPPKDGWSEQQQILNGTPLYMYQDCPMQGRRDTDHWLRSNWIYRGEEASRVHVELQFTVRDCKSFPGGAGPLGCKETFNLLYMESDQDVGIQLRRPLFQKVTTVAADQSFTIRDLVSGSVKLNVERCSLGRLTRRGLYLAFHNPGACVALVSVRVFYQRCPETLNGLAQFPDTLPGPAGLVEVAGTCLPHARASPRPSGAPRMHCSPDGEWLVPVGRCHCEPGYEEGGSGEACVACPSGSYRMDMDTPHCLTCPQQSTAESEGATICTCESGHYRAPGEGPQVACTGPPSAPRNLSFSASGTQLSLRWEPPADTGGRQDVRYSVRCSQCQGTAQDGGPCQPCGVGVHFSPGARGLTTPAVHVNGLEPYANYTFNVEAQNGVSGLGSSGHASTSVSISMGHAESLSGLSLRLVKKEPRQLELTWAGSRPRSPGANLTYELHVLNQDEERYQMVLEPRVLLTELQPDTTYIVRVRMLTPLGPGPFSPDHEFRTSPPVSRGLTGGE

T4: human EphA6 extracellular region-SEAP-His protein (human, UniProt Q9UF33 23-550)
T4 construct: extracellular domain; also called hEphA6-SEAP-His
T4 sequence (looked up): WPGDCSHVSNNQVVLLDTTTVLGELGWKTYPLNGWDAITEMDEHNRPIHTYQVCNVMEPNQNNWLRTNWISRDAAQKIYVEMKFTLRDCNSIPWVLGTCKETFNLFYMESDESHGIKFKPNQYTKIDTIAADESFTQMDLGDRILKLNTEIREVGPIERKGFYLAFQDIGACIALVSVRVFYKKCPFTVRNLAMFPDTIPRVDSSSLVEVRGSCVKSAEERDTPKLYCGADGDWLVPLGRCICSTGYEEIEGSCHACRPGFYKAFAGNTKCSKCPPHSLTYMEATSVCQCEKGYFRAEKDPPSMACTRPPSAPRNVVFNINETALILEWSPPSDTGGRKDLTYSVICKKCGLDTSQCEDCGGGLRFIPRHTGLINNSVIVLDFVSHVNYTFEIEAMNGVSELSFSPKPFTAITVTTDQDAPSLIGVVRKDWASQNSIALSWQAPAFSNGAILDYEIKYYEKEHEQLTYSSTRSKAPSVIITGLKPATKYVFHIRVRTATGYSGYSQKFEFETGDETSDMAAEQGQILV

B1: humanized antibody No. 76 (antibody, human IgG1, kappa)
heavy: QVQLVQSGSELKKPGASVKVSCKASGYTFTDYSMHWVRQAPGQGLKWMGWINTETGEPTYAQGFTGRFVFSLDTSVSTAYLQISSLKAEDTAVYYCARIPLYYYGSRYWYFDVWGQGTTVTVSSASTKGPSVFPLAPSSKSTSGGTAALGCLVKDYFPEPVTVSWNSGALTSGVHTFPAVLQSSGLYSLSSVVTVPSSSLGTQTYICNVNHKPSNTKVDKRVEPKSCDKTHTCPPCPAPPAAAPSVFLFPPKPKDTLMISRTPEVTCVVVDVSHEDPEVQFNWYVDGVEVHNAKTKPREEQFNSTFRVVSVLTVVHQDWLNGKEYKCKVSNKGLPAPIEKTISKTKGQPREPQVYTLPPSREEMTKNQVSLTCLVKGFYPSDIAVEWESNGQPENNYKTTPPMLDSDGSFFLYSKLTVDKSRWQQGNVFSCSVMHEALHNHYTQKSLSLSPG
light: DIQMTQSPSSLSASVGDRVTITCRASENIYRNLAWYQQKPGKAPKLLVYAATNLADGVPSRFSGSGSGTDYTLTISSLQPEDFATYYCQHFWGTPWTFGQGTKVEIKRTVAAPSVFIFPPSDEQLKSGTASVVCLLNNFYPREAKVQWKVDNALQSGNSQESVTEQDSKDSTYSLSSTLTLSKADYEKHKVYACEVTHQGLSSPVTKSFNRGEC
notes: human Ig kappa; also called L1-4/HA2
B2: humanized antibody No. 69 (antibody, human IgG1, kappa)
heavy: B1 heavy with V2I, Q62D, G63D, T65K
light: B1 light
notes: human Ig kappa; also called L1-4/HK4
B3: humanized antibody No. 77 (antibody, human IgG1, kappa)
heavy: B1 heavy with K46E, Q62D, G63D, T65K
light: B1 light
notes: human Ig kappa; also called L1-4/HK1
B4: humanized antibody No. 84 (antibody, human IgG1, kappa)
heavy: B1 heavy with K46E, Q62D, G63D, T65K
light: B1 light with V48L, P80S
notes: human Ig kappa; also called L1-5/HK1
B5: humanized antibody No. 81 (antibody, human IgG1, kappa)
heavy: B1 heavy with K46E
light: B1 light with V48L, P80S
notes: human Ig kappa; also called L1-5/HA1
B6: humanized antibody No. 85 (antibody, human IgG1, kappa)
heavy: B1 heavy with Q62D, G63D, T65K
light: B1 light with V48L, P80S
notes: human Ig kappa; also called L1-5/HK2
B7: humanized antibody No. 86 (antibody, human IgG1, kappa)
heavy: B1 heavy with V2I, Q62D, G63D, T65K
light: B1 light with V48L, P80S
notes: human Ig kappa; also called L1-5/HK4
B8: humanized antibody No. 88 (antibody, human IgG1, kappa)
heavy: B1 heavy
light: B1 light with K45Q, V48L
notes: human Ig kappa; also called L1-6/HA2
B9: humanized antibody No. 83 (antibody, human IgG1, kappa)
heavy: B1 heavy with V2I
light: B1 light with V48L, P80S
notes: human Ig kappa; also called L1-5/HA4
B10: humanized antibody No. 78 (antibody, human IgG1, kappa)
heavy: B1 heavy with Q62D, G63D, T65K
light: B1 light
notes: human Ig kappa; also called L1-4/HK2
B11: humanized antibody No. 67 (antibody, human IgG1, kappa)
heavy: B1 heavy with V2I
light: B1 light
notes: human Ig kappa; also called L1-4/HA4
B12: humanized antibody No. 75 (antibody, human IgG1, kappa)
heavy: B1 heavy with K46E
light: B1 light
notes: constant region: human IgG1 CH1 and hinge, human IgG2 CH2 and CH3 with V234A, G237A, no C-terminal Lys; human Ig kappa; also called L1-4/HA1
B13: humanized antibody No. 87 (antibody, human IgG1, kappa)
heavy: B1 heavy with K46E
light: B1 light with K45Q, V48L
notes: human Ig kappa; also called L1-6/HA1
B14: humanized antibody No. 82 (antibody, human IgG1, kappa)
heavy: B1 heavy
light: B1 light with V48L, P80S
notes: human Ig kappa; also called L1-5/HA2

The binders below were run against T1, human EphB1 extracellular … (assay: ELISA).

A450 as % of hEphA4-SEAP-His	Binder
4.9%	B1
5.6%	B2
4.6%	B3
5.2%	B4
4.9%	B5
5%	B6
5.7%	B7
6.1%	B8
5.6%	B9
5%	B10
4.6%	B11
4.4%	B12
5.3%	B13
5.4%	B14

The binders below were run against T2, human EphA3 extracellular … (assay: ELISA).

A450 as % of hEphA4-SEAP-His	Binder
4.9%	B1
5.4%	B2
4.5%	B3
4.9%	B4
5%	B5
5.1%	B6
5.8%	B7
6%	B8
5.7%	B9
5.1%	B10
4.8%	B11
4.8%	B12
5.5%	B13
5.4%	B14

These binders were tested against T3, human EphA1 extracellular … (assay: ELISA).

A450 as % of hEphA4-SEAP-His	Binder
5.1%	B1
5.7%	B2
4.5%	B3
5.2%	B4
4.4%	B5
5%	B6
5.9%	B7
5.8%	B8
5.7%	B9
6.6%	B10
4.6%	B11
4.7%	B12
5.3%	B13
5.4%	B14

What follows are binders tested against SEAP-His (UniProt P05187 23-511) (assay: ELISA).
Sequence of SEAP-His (P05187 23-511): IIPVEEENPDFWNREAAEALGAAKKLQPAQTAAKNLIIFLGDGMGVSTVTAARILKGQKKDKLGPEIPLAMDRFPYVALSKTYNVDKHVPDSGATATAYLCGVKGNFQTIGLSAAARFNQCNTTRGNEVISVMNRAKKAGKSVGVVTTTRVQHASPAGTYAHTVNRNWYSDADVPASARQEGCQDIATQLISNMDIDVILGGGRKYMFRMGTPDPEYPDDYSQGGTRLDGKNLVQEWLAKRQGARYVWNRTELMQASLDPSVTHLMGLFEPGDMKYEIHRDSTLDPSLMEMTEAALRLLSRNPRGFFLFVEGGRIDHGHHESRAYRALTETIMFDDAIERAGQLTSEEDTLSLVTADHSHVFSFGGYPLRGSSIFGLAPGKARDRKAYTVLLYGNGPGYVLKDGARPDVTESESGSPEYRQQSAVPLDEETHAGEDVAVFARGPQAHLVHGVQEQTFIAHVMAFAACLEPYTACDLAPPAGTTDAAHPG

A450 as % of hEphA4-SEAP-His	Binder
5.5%	B1
6.1%	B2
4.7%	B3
5.1%	B4
5%	B5
5.3%	B6
6.1%	B7
6.1%	B8
6.5%	B9
5.3%	B10
5%	B11
4.4%	B12
5.5%	B13
5.9%	B14

The binders below were run against T5, human EphA4 extracellular region-SEAP-His protein (human, UniProt P54764 20-547) (assay: ELISA).
T5 construct: also called hEphA4-SEAP-His
T5 sequence (P54764 20-547): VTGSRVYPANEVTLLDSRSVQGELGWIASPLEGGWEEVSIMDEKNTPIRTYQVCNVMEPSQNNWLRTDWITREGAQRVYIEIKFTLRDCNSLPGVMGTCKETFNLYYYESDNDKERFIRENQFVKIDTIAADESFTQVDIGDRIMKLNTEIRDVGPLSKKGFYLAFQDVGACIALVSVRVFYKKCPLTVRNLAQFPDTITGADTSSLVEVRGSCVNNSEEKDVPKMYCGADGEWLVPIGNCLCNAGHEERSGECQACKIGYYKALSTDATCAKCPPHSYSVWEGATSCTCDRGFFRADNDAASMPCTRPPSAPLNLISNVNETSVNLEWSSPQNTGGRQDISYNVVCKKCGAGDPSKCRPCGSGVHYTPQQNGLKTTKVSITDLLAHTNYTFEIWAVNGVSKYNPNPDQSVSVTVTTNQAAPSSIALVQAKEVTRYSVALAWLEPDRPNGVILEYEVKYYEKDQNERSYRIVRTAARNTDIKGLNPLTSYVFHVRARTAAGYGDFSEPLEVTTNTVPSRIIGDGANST

A450 as % of hEphA4-SEAP-His	Binder
100%	B1
100%	B2
100%	B3
100%	B4
100%	B5
100%	B6
100%	B7
100%	B8
100%	B9
100%	B10
100%	B11
100%	B12
100%	B13
100%	B14

The binders below were run against T4, human EphA6 extracellular … (assay: ELISA).

A450 as % of hEphA4-SEAP-His	Binder
7.9%	B1
9.5%	B2
6%	B3
6%	B4
8.8%	B5
6.2%	B6
8.6%	B7
7.5%	B8
7.5%	B9
10%	B10
7.3%	B11
8.3%	B12
6.4%	B13
8.7%	B14

Reference: patent publication US20190077860A1 (EISAI R AND D MANAGEMENT, published 2019)
